Measurements published in patent publication US20120276102A1 (Pfizer, published 2012).
Positions count from the first letter of the chain named.

T1: human gamma (γ) common chain expressed on CHO cells (human, UniProt P31785 23-369)
T1 construct: whole, on cells; Control protein; also called human IL-2R-γ common subunit; human γ-common
T1 sequence (looked up): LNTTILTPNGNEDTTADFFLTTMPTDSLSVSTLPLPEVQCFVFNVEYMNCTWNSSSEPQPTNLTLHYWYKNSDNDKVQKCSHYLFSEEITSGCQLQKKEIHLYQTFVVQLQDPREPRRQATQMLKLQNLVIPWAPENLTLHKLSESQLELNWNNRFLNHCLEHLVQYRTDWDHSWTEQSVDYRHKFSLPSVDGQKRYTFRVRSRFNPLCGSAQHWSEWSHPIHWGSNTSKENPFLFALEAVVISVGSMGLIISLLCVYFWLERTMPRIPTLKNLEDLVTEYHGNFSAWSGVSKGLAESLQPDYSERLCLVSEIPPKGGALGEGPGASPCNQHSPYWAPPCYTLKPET

T2: human IL-2Rβ (human, UniProt P14784 27-239)
T2 sequence (looked up): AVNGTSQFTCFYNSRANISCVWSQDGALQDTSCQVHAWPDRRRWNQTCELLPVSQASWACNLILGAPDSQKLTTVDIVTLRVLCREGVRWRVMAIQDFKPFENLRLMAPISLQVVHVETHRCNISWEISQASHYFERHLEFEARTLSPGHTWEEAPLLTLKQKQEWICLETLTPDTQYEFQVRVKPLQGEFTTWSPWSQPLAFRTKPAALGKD

B1: AbD (antibody, IgG1, V domains shown)
VH: QVQLQESGPGLVKPSETLSLTCAVSGYSISSGYYWGWIRQPPGKGLEWIGSISHTGNTYYNPPLKSRVTISVDTSKNQFSLKLSSVTAADTAVYYCARGGGISRPEYWGQGTLVTVSS
VL: SSELTQDPAVSVALGQTVRITCQGDSLRTYYASWYQQKPGQAPVLVIYGKHKRPSGIPDRFSGSSSGNTASLTITGAQAEDEADYYCVTRNRYGNPHVLFGGGTQLTVL
notes: As for AbA: IgG1/lambda, CDR3 graft, residue limits derived; also called VHP/VL13
B2: AbF (antibody, IgG1, V domains shown)
VH: B1 VH
VL: B1 VL with V88S, N91S, Y93K
notes: As for AbA: IgG1/lambda, CDR3 graft, residue limits derived; also called VHP/VL17
B3: AbM (antibody, IgG1, V domains shown)
VH: B1 VH with G99F, G100F, I102F, S103G
VL: B1 VL
notes: As for AbA: IgG1/lambda, CDR3 graft, residue limits derived; also called VH6/VL13
B4: AbI (antibody, IgG1, V domains shown)
VH: B1 VH
VL: B1 VL with V88I, T89A, N91S, R92N, Y93K
notes: As for AbA: IgG1/lambda, CDR3 graft, residue limits derived; also called VHP/VL24
B5: AbK (antibody, IgG1, V domains shown)
VH: B1 VH with G99F, G100M, I102F, S103G
VL: B1 VL with T89S, N91A, R92V, Y93V
notes: As for AbA: IgG1/lambda, CDR3 graft, residue limits derived; also called VH3/VL3
B6: AbL (antibody, IgG1, V domains shown)
VH: B1 VH with G99F, G100M, I102F, S103G
VL: B1 VL
notes: As for AbA: IgG1/lambda, CDR3 graft, residue limits derived; also called VH3/VL13
B7: AbH (antibody, IgG1, V domains shown)
VH: B1 VH
VL: B1 VL with T89A, N91A, R92V, Y93R
notes: As for AbA: IgG1/lambda, CDR3 graft, residue limits derived; also called VHP/VL19
B8: AbN (antibody, IgG1, V domains shown)
VH: B1 VH with G99F, G100F, I102F, S103G
VL: B1 VL with V88I, T89A, N91S, R92N, Y93K
notes: As for AbA: IgG1/lambda, CDR3 graft, residue limits derived; also called VH6/VL24
B9: AbE (antibody, IgG1, V domains shown)
VH: B1 VH
VL: B1 VL with V88M, T89A, N91S, Y93K
notes: As for AbA: IgG1/lambda, CDR3 graft, residue limits derived; also called VHP/VL14

Each binder was assayed against T3, cynomolgus monkey IL-21R expressed on cells (cynomolgus monkey, UniProt G7Q0S8 41-559) (assay: cell-based ELISA on CHO cells transiently expressing cynomolgus monkey IL-21R; HRP anti-human IgG, A450).
T3 construct: whole, on cells
Description: (§1) FIG. 6(a-l) depicts the binding of 21 anti-IL-21R IgGs to CHO cells transiently expressing human IL-21R (FIGS. 6a-c), rat IL-21R (FIGS. 6d-f), cynomolgus monkey IL-21R (FIGS. 6g-i), and human gamma common chain (FIGS. 6j-1). CHO cells were transiently transfected with IL-21R or the control gamma common chain, and binding was detected with HRP-conjugated anti-human IgG in a cell-based ELISA.
(§2) A subset of binding proteins was tested for binding to rat, cynomolgus monkey, human IL-21R, or human IL-2R-γ common subunit expressed transiently on the surfaces of CHO-PA-Dukx cells. Cells were transfected 48 hr prior to the assay. On the day of the assay, cells were washed gently 5× in PBS containing 0.9 mM CaCl₂ and 0.45 mM MgCl₂ (PBS/CaMg) on an automated plate washer (Titertek, Huntsville, Ala.), and blocked for 1 hr at RT in PBS/CaMg/5% nonfat dry milk. Conditioned media from transiently expressed anti-IL-21R IgGs were serially diluted in blocking buffer and added to the cells in the blocked plates for 1 hr at RT. Cells were washed 5× with PBS/CaMg and then incubated with horseradish peroxidase-conjugated anti-human IgG for 1 hr at RT. Cells were then washed 10× in PBS/CaMg and all of the wash buffer was removed. Cells were incubated with 100 μl TMB until the color reaction reached saturation, stopped with 100 μl of 0.18 M H₂SO₄, and read at A450 on a Perkin Elmer ENVISION™ plate reader.

Binder	EC50 (read off the curve) [nM]
B1	~2
B2	~0.5
B3	~3
B4	~0.4
B5	~2
B6	~0.9
B7	~0.5

These binders were tested against T4, human IL-21R expressed on cells (human, UniProt Q9HBE5 20-538) (assay: cell-based ELISA on CHO cells transiently expressing human IL-21R; HRP anti-human IgG, A450).
T4 construct: also called human IL-21R-BaF3; human IL-21R-TF1
T4 sequence (Q9HBE5 20-538 limits assumed): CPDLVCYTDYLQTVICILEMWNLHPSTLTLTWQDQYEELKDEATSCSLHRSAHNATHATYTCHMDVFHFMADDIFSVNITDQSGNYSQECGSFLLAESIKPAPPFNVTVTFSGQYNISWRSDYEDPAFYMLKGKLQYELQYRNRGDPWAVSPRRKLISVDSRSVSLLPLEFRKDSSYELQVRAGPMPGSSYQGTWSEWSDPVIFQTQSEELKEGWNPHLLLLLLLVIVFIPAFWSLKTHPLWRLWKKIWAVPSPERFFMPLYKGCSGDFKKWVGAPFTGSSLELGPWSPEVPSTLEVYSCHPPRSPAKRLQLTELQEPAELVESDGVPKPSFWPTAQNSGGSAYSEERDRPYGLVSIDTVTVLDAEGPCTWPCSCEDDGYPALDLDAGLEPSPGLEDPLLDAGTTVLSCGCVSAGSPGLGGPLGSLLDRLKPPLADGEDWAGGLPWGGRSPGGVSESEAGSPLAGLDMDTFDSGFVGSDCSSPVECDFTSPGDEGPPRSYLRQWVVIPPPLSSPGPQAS
Description: as §1, §2

Binder	EC50 (read off the curve) [nM]
B1	~0.9
B2	~0.5
B4	~0.9
B6	~1
B7	~0.4

These binders were tested against murine IL-21R expressed on cells (murine, UniProt Q9JHX3 20-529) (assay: cell-based or functional assay).
Sequence of murine IL-21R expressed on cells (Q9JHX3 20-529 limits assumed): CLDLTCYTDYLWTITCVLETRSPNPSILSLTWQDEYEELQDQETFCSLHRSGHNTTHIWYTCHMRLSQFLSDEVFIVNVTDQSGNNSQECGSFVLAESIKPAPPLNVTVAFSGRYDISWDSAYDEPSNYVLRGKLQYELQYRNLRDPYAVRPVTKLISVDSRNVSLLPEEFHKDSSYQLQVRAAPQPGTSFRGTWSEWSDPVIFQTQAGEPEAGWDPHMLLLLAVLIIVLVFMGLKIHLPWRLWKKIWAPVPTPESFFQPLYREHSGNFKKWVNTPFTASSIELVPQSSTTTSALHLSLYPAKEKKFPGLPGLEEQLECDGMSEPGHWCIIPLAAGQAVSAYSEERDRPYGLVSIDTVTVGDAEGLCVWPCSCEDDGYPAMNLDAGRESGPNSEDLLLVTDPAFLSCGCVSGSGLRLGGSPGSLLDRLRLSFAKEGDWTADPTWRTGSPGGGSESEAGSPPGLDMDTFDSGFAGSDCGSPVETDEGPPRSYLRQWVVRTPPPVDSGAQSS

Binder	Murine IL-21R-BaF3 Proliferation IC50 [nM]
B1	0.01
B2	0.304
B3	0.125
B4	0.224
B5	0.079
B8	0.435
B9	0.04
B6	0.227
B7	0.327

Each binder was assayed against T4, human IL-21R expressed on cells (assay: cell-based or functional assay).

Binder	Human IL-21R-BaF3 Proliferation IC50 [nM]	Human IL-21R-TF1 Proliferation IC50 [nM]
B1	0.91	2.67
B2	0.54	2.41
B3	1.08	4.22
B4	1	3.8
B5	0.98	4
B8	0.5	1.59
B9	0.56	2.28
B6	0.68	4.25
B7	0.94	3.64

Each binder was assayed against T1, human gamma (γ) common chain expressed … (assay: cell-based ELISA on CHO cells transiently expressing human gamma common chain; HRP anti-human IgG, A450).
Description: as §1, §2

Binder	binding result
B4	no binding (tested: 13 nM)
B5	no binding (tested: 40 nM)

The binders below were run against T2, human IL-2Rβ (assay: SPR, Ab captured).
Description: (§3) The specificity of binding of a subset of transiently expressed anti-IL-21R binding proteins (here antibodies) was tested on a BIACORE™ 2000 surface plasmon resonance instrument. Anti-human-IgG, anti-murine immunoglobulin antibodies, and murine IL-21R-H/F were immobilized onto a research-grade carboxymethyl-dextran chip (CM5) using standard amine coupling. The sensor chip surface was activated with EDC/NHS for 7 min at a flow rate of 20 μl/min. The first flow cell was used as reference surface to correct for bulk refractive index, matrix effects, and nonspecific binding. […] Remaining activated groups were blocked with 1.0 M ethanolamine (pH 8.0). The molecular weights of the anti-human IgG and the anti-murine IgG were both 150 kD, and the molecular weight of the IL-21R monomer was 27 kD.
(§4) Conditioned media containing anti-IL-21R antibodies and antibody controls (murine anti-human IL-2Rβ and murine anti-human IL-4R(R&D Systems, Minneapolis, Minn.); human anti-human IL-13 (Wyeth, Cambridge, Mass.)) were diluted in HBS/EP buffer supplemented with 0.2% bovine serum and injected onto all four flow cells of the BIACORE™ chip, capturing 500-700 (RU) of antibody on the species-appropriate capture antibody. Following a 5 sec washing period, 50 nM solutions of a positive control protein (murine IL-21R-H/F), two human proteins related to IL-21R (human IL-2Rβ and human sIL-4R(R&D Systems)), or an unrelated His/FLAG-tagged protein (human IL-13-H/F) were injected over the captured antibodies on the chip. The association and dissociation phases were monitored for 120 and 180 sec, respectively, followed by two 5 μl injections of glycine (pH 1.5) to regenerate a fully active capturing surface. All binding experiments were done at 25° C. in HBS/EP buffer. Blank and buffer effects were subtracted for each sensorgram using double referencing.

Binder	binding result
B1	no binding (tested: 50 nM)
B2	no binding (tested: 50 nM)
B4	no binding (tested: 50 nM)
B5	no binding (tested: 50 nM)
B9	no binding (tested: 50 nM)
B6	no binding (tested: 50 nM)
B7	no binding (tested: 50 nM)

These binders were tested against T5, human IL-13-His/FLAG (human, UniProt P35225 35-146, limits assumed) (assay: SPR, Ab captured).
T5 construct: Unrelated His/FLAG-tagged control; also called human IL-13-H/F
T5 sequence (P35225 35-146 limits assumed): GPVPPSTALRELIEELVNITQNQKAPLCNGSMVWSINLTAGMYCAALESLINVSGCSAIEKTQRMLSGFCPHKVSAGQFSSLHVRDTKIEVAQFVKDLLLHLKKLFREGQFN
Description: as §3, §4

Binder	binding result
B1	no binding (tested: 50 nM)
B2	no binding (tested: 50 nM)
B4	no binding (tested: 50 nM)
B5	no binding (tested: 50 nM)
B9	no binding (tested: 50 nM)
B6	no binding (tested: 50 nM)
B7	no binding (tested: 50 nM)

What follows are binders tested against T6, human soluble IL-4R (human, UniProt P24394 26-232, limits assumed) (assay: SPR, Ab captured).
T6 construct: also called human sIL-4R
Description: as §3, §4

Binder	binding result
B1	no binding (tested: 50 nM)
B2	no binding (tested: 50 nM)
B4	no binding (tested: 50 nM)
B5	no binding (tested: 50 nM)
B9	no binding (tested: 50 nM)
B6	no binding (tested: 50 nM)
B7	no binding (tested: 50 nM)

These binders were tested against T7, rat IL-21R expressed on cells (rat) (assay: cell-based ELISA on CHO cells transiently expressing rat IL-21R; HRP anti-human IgG, A450).
T7 construct: whole, on cells
Description: as §1, §2

Binder	EC50 (read off the curve) [nM]
B2	~0.7
B5	~1
B9	~0.8

These binders were tested against T4, human IL-21R expressed on cells (assay: cell ELISA, CHO cells).
Description: as §2

Binder	A450 (13 nM Ab) [A450]
B1	1.25
B2	1.35
B3	1.2
B4	1.24
B5	1.36
B8	1.21
B9	1.26
B6	1.45
B7	1.35

These binders were tested against T1, human gamma (γ) common chain expressed … (assay: cell ELISA, CHO cells).
Description: as §2

Binder	A450 (13 nM Ab) [A450]
B4	0.107
B5	0.108
B8	0.136

These binders were tested against T7, rat IL-21R expressed on cells (assay: cell ELISA, CHO cells).
Description: as §2

Binder	A450 (13 nM Ab) [A450]
B1	0.874
B2	1
B3	0.78
B4	1.09
B5	1.18
B8	0.702
B9	1.11
B6	1.26
B7	1.1

What follows are binders tested against T3, cynomolgus monkey IL-21R expressed on … (assay: cell ELISA, CHO cells).
Description: as §2

Binder	A450 (13 nM Ab) [A450]
B1	1.38
B2	1.46
B3	1.45
B4	1.21
B5	1.34
B8	1.5
B9	1.42
B6	1.51
B7	1.32
